Data on two sequences can be found in patent US20130116417.

The series relates to monoclonal antibody 2G12 (anti-HIV gp120). As to the kind of experiment: filter.

“CTGTTGTTCCGCAGTCACCTTNNNNNNNNNNNNNNNNNNNNNNNNNCCCGTACCCGTATTTGGTGGCAAGGATGACAAGGATTTTATATTTTATATTTTTATTTTATTATCGGGTACGGG [initial random glyco-DNA library]” returned a binding (library template (-)-strand listed, assayed (+)-strand has 5-ethynyl-dU in place of T, glycosylated with Man4-azide, initial random library, less than 3% bound) of less than 3 % bound. As to “CACCAAATACGGGTACGGGCCCGGCUGUUUCAGAUGCUGUAAGUAAGGUGACUGCGGAACAACAG [Man4-16 (clone 16 glyco-DNA)]”, the Kd (each U is 5-ethynyl-dU glycosylated with Man4-azide by CuAAAC click (10 sites), T in the primer region unmodified, 20 mM Tris pH 7.5, 100 mM NaCl, 2 mM MgSO4, 0.02% Tween-20, room temperature, 3 h, after 7 SELMA rounds) was determined as 220 nM.
